The record followed here is paper PMC6471214.

Test [1] has as its target Biotinylated tubulin (UniProt P02550). In words: LSPR (extinction maximum wavelength of gold nanoparticles) + fluorescence microscopy; long MT sample: as the short MT sample, then 10 volumes of 4 µM tubulin (4% Rhodamine-labeled) with 0.5 mM GMPCPP added, 20 more min at 37 °C before paclitaxel.
The target is the same in test [2]. Kind of test: LSPR (extinction maximum wavelength of gold nanoparticles) + fluorescence microscopy; short MT sample: biotinylated tubulin (7% of the tubulin mix, with 4% Rhodamine-labeled tubulin) held on 80 nm biotin-PEG AuNPs through neutravidin; BRB80 pH 6.8, 0.025% Tween 20; GMPCPP, 37 °C for 30 min; stabilised with 10 µM paclitaxel; spectra at room temperature.

“Porcine tubulin (α/β-tubulin heterodimer subunits) (from UniProt P02550 1-451; P02554 1-445) (complex)”: the λmax (LSPR extinction maximum wavelength) with Biotinylated tubulin [1] and with Biotinylated tubulin [2] was 553 nm throughout.
